Test results as given in the DeepSol protein solubility set.

Experiment: soluble on expression in E. coli; label from the status in PepcDB or PDB records

Sequence	soluble on expression in E. coli
MGSDKIHHHHHHMFIDKQTVERHFSKSAHLYDGVNHVQRKMAHRLVQLLDEKRRDAKDEPRAILDIGCGTGWLTRECLKSFPQATIDAVDLSKQMLEVAEKNVSSHPNVQFIQGDIEKMVREKPSAKTYDVIVANAVFQWLDKPTETVAQLRSWLKPNGLLLFSTFGPDTFYELHDSFQLAAKQLGIIDERRGLDYLSKTEWKRTLDGLFAELTIHEEKAIESYATVEQFLHTVKKMGATYSQSSRPLSKRYYQLMKEIYEQRYRTEDSIPATYDCLYVLCQA	not soluble
MSLGVEGEMQSFMSDMGVQANVTGPSAYQGQSAGYYSMGSVWSRFPQKNIQPFNLQLPHARAGCGGIDLFAGSFSFINTAELVAMLKATANNALGFAFKLAIDTISPEIGKVMDELAQKVQQMNQMNISSCETAQALVGGLWPKSDTASSVICEAIANSQGAVSDWARARQQCNNGGQREALKSANSDPDMKEQAGMPNNYTWAALGKKYGGFDTQFREFLMTLVGTVIYDPAGNGGKPRVQFIGPADPALISAMLDGTSSTPHKYWSCGGDSAKCMAPSEIDMVIGPNAAIKARVRTLIESMALKVRDPGASLTPAEIQLLGMASVPVYKIITVSAAAEFGISAQEINDLSEIVAVDLVTTMTMRFIDMAVNARSDFNGADADSLREWREGLYETRRNFLGIAARTSQRFDQTFALIQRTQMLEKTLRTQLSPQMSAALRFSRTLGSQVQEGHHHHHH	not soluble
MGSDKIHHHHHHMHYNDQGADFKYLIVNERDKRFGLSVTTVGFQAIRAGSVYPPRNHPDAYYFTAQKGRVLHEYQLVYITKGRGTFASDTTPSVDISKGQILFLFPGQWHTYAPLQKTGWNEYYIGFEGPIIDNLVKNSFISKESQILDIGINEELASLFARALEVAEADKTAAQQYLSGIVLHIMGAVLAISQNKRYEVDNAAQKIESAKIIMHENVYKDIDPEELAMKLGISYSWFRKVFKEYTGYAPAKYFQELKLRKAKQLLIESSMSVKEICYELNYTSTEHFFSVFKKRTNFTPTEYRNFGRGGKEKENENE	not soluble
MGSDKIHHHHHHMLGSNMLLTNRIDLRSYHTESCSHTHDFAQLVLPVSGSMELEVGHYSGVVNDDIGVYIAPNEQHCFAGSQKNLFLVIDATTQNSLRDEAFESNILNLTASTKKLIQFTHHYLAHNERDFFTDSLINQLLFHFAASSFSPEPDLVVIRAKQWIDLYFADSVNVNRVAKHCYLSISQLQRRFKQMLGCGIAEYWRMKKLLHAKKLLSQKNCSIEAIAFEVGYENLPAFSRRFSKVFGESPSQWRSKALTAKKMREIDK	not soluble
MDSVELCLPESFSLHYEEELLCRMSNKDRHIDSSCSSFIKTEPSSPASLTDSVNHHSPGGSSDASGSYSSTMNGHQNGLDSPPLYPSAPILGGSGPVRKLYDDCSSTIVEDPQTKCEYMLNSMPKRLCLVCGDIASGYHYGVASCEACKAFFKRTIQGNIEYSCPATNECEITKRRRKSCQACRFMKCLKVGMLKEGVRLDRVRGGRQKYKRRIDAENSPYLNPQLVQPAKKPYNKIVSHLLVAEPEKIYAMPDPTVPDSDIKALTTLCDLADRELVVIIGWAKHIPGFSTLSLADQMSLLQSAWMEILILGVVYRSLSFEDELVYADDYIMDEDQSKLAGLLDLNNAILQLVKKYKSMKLEKEEFVTLKAIALANSDSMHIEDVEAVQKLQDVLHEALQDYEAGQHMEDPRRAGKMLMTLPLLRQTSTKAVQHFYNIKLEGKVPMHKLFLEMLEAKV	soluble
MDIEIENHPLEPFLPANARLLMLGSFPPQKKRWSMDFYYPNLNNDMWRIVGLLFFNNKDYFLNETRKAFCRERIISFLNDKGIALFDTASAIRRLQDNASDKFLEVVQPTDISRLLGQLPECKAIVTTGQKATDTLRAQFEVEEPKVGDFSEFVFDGRPVRLYRMPSSSRAYPLALDKKAAAYRTMYQDLQMLNIELEHHHHHH	soluble
GPLGSPEFMEGVLYKWTNYLTGWQPRWFVLDNGILSYYDSQDDVCKGSKGSIKMAVCEIKVHSADNTRMELIIPGEQHFYMKAVNAAERQRWLVALGSSKASLTDTRT	soluble
MGSDKIHHHHHHMTPTLPDRKQNPPSAPAATVSLRLLEIFMLVAQEGSVSAAANRLNLTQAAVSQAITVLEQALDVKLLDRSVRPPLLTLRGSTALQYAREILAKVHEFEDAMRYSGSGRVPLLRIGMLNSFASTAGAFVLNQLRDIAAEWTVASGFRETCIQALLDRQSDVIITTDETPAPSEIEVFPIFSEPFVAVVPASFDGKTERLQDIADKLDFIHYGHDSHMGSKITNYLKKIGTVPARRYQFDTTDAALHMVAGGFGWAIVTPLIYLKSRVEGSGVRVVPLTRLPIHRTFIVGMRRGEGSDIAQRVRTAAIITLRDVILPQIEAVLPEASKGVSVAEIEPKASTGKRKGSRRDSAGS	not soluble
MGSDKIHHHHHHMQILKTSDVPTGIVLLDRRLDGGLPAGSFVCVYANPLAMPEAFLYQFATVLKTYYFTTSRPAKFVKQDMEKLRLDTSFVTFVDVYEQYYLNEYGQFIVEDRYRDKEIFDYVDDRLSRIAEEESGEYNVIIDSLSFFLNLNTDWGLKDWLINKLYTLAKEKGVVVYCHLIKNLHPVDVVNKVLDISDVVFDIEVERVGERLVSKFAVPKLRGKRPVTEYFRFYVEEGIQVDTSRDIA	not soluble
MGSDKIHHHHHHMRKPGDFLESGMTESVNEKADVMKVPVPNLALGMYVAAIDHQGRVNITNPGQIKDRQAIDKLVRNGIEYVWVDVERSAPECGLRPKQEPEKIIRLTRDQSQEKAKRLMSEAKDLVKKVLSETFEGKAVKVEPFEALADKMLESVMLDADAFKCISALRSKDAYLLEHSINVAFLLVTFGRYLKLKRSVLKQLAVGGILHDIGKVRVNNRILHKPGRLTPEEFEHMKLHQVYAQEILAETEDLSQISRDVCLMHHEKLDGKGYPNGLKGEEISLHGRMSCIVDIFDALTATRCYKEAMSPAAAFKILLSLTPFHLDEKLVYEFIRCVGIYPVGSLVQLSDGRIGIVWEAKDRDALHPVLKTFYSVKHKHYTEVTMVDLLKSDLFIERGVSPSSLDVDPTPFY	not soluble
MSLGTFPAGVSADSVFVGLTIPLTGVFSGDGGDLKLGYELAIAQINAGSDIAQKWGLKGKGVLGRQIRHKVSDTEGKPNLDVQSATQFIQRDKAIMVSGSVSSSSAIALEELGSREKVLYMVGIAGSNDITGKNCQRYGFRSQQNAYMAAKGLAPVVAKALGKNIKMAFLVPDYTYGHSVYDSFSKFATEQGWKQVAKEVVPLGTTDYSSALLNIANSGADVFVNIAFGADSVASTKQAEQFGVLKRMKLVVPNLSSFQDKELGAELMQGVYGSCDFWFGLQDKFPLAKAFVDSFVAQNNYHPRWGAHIGYMQTYLWAMSVERANTFNPVDVIKVMENSKAQPYVTTIGNVYFRAEDHQMVRPIPILRGKKPSEMKHKEDFYDIIDLVDGEAVMNPPDLFGCKLGPYTEGHHHHHH	soluble
MSLNHPSSTPVPPLDATPARALGEFIRAHRERLSPQAVGLPPGPRRRTPGLRREEVAQLCGVSPTWYTWIEQGRPVSASADALARIAVALQLSKAERAYLFELAAQRDPAEPDVAGGDLPPTLAATVAAIATPAYVMDRQWNALAWNTPAAALFSGWLDGEHDRNLLRFTFMSPAARTLIVDWETRARRMAAEFRADSIRHLTDAPTRALIDALTAGSDAFAQYWASQDVFEREGGLREFDHPADGRMVYQQITLKPAHREDLKLVVLVRDEGHHHHHH	soluble
ADSVFISGHKNADMDSLGAALGIWRMSRLHDLTAYIIIDDQNLQRDVKLVIGKINDEVDAANEKLKNQATDGKTPKLIEQPFITEKKALSLATDQSLLVLVDHSRPSISAAGQLLEKLKSSLIVIDHHRIADESFSEKPILFYVEQYASSTCELVTELLGYEDRRKSPLTKVEATALLGGIQLDTKGFTSHSGSRTFDAASFLRAAGADAQLLSSFGKESK	not soluble
MGGSHHHHHHGMASMTGGQQMGRTLYDDDDKDRWGSMNYVIIGGDAAGMSAAMQIVRNDENANVVTLEKGEIYSYAQCGLPYVISGAIASTEKLIARNVKTFRDKYGIDAKVRHEVTKVDTEKKIVYAEHTKTKDVFEFSYDRLLIATGVRPVMPEWEGRDLQGVHLLKTIPDAERILKTLETNKVEDVTIIGGGAIGLEMAETFVELGKKVRMIERNDHIGTIYDGDMAEYIYKEADKHHIEILTNENVKAFKGNERVEAVETDKGTYKADLVLVSVGVKPNTDFLEGTNIRTNHKGAIEVNAYMQTNVQDVYAAGDCATHYHVIKEIHDHIPIGTTANKQGRLAGLNMLDKRRAFKGTLGTGIIKFMNLTLARTGLNEKEAKGLHIPYKTVKVDSTNMAGYYPNAKPLYLKLLYRSDTKQLLGGQVIGEEGVDKRIDVIAMALFNKMSIHDLEDVDLSYAPPYNSVWDPIQQAARRAE	soluble
